From article PMC11243334, “Synthesis and Evaluation of the First ^68Ga-Labeled C-Terminal Hydroxamate-Derived Gastrin-Releasing Peptide Receptor-Targeted Tracers for Cancer Imaging with Positron Emission Tomography” (Molecules, 2024)
Where two headings read alike, the source gives them in different places.

Assays:
PC-3 tumor xenografts = assay: PET/CT imaging in mice bearing PC-3 tumor xenografts; type: in vivo; conditions: 1 h post injection
Description: (§1) Imaging and biodistribution studies were performed on male NOD.Cg-Rag1^tm1Mom Il2rg^tm1Wjl/SzJ (NRG) mice following previously published procedures. The experiments were conducted following the guidelines established by the Canadian Council on Animal Care and approved by Animal Ethics Committee of the University of British Columbia. The mice were sedated (2.5% isoflurane in oxygen) and injected with 5 × 10^6 PC-3 cells (100 µL; 1:1 PBS/Matrigel) subcutaneously behind the left shoulder. The tumor-bearing mice were used for PET/CT imaging and biodistribution studies when the tumor grew to 5–8 mm in diameter.
PET/CT imaging experiments were performed on a Siemens (Knoxville, TN, USA) Inveon micro PET/CT scanner. Each tumor-bearing mouse was injected with ~3–6 MBq of ^68Ga-labeled tracer through a lateral caudal tail vein under anaesthesia. At around 50 min post injection, a 10 min CT scan was obtained first for localization and attenuation correction after segmentation for reconstructing the PET image, followed by a 10 min static PET scan.

[1] = Ex vivo biodistribution in PC-3 tumor-bearing mice; conditions: male, mouse, iv, total radioactivity, mean ± SD, n = 4; for tissue uptake at 1 h: NOD.Cg-Rag1^tm1Mom Il2rg^tm1Wjl/SzJ (NRG); for tissue to tissue ratio at 1 h: NOD.Cg-Rag1tm1Mom Il2rgtm1Wjl/SzJ (NRG)
Description: (§2) Biodistribution studies were conducted for ^68Ga-labeled SB3, LW02075 and LW02050 in PC-3 tumor-bearing mice (n = 4).
as §1
(§3) For biodistribution studies, the mice were injected with the radiotracer (~2–4 MBq), as described above. Blocking of [^68Ga]Ga-LW02075 and [^68Ga]Ga-LW02050 was conducted by co-injection with 100 μg nonradioactive Ga-LW02075 and Ga-LW02050, respectively, through a lateral caudal tail vein under anaesthesia. At 1 h post injection, the mice were sedated and euthanized by CO2 inhalation. Blood was collected via cardiac puncture, and organs/tissues of interest were collected, weighed, and counted on a Perkin Elmer (Waltham, MA, USA) Wizard2 2480 automatic gamma counter.

PC-3 tumor-bearing mice = assay: Ex vivo biodistribution in PC-3 tumor-bearing mice; conditions: 1 h post injection, 100 μg nonradioactive standard co-injected
Description: as §2, §1, §3

physchem = conditions: n-octanol/DPBS, pH 7.4
Description: LogD7.4 values of [^68Ga]Ga-LW02075, [^68Ga]Ga-LW02050, and [^68Ga]Ga-SB3 were measured via the shake flask method. An aliquot of the ^68Ga-labeled tracer (~1.85 MBq) was added to a 15 mL falcon tube containing 3 mL of n-octanol and 3 mL of DPBS (pH 7.4) followed by 1 min of vortex (n = 3). After that, the mixture was centrifuged at 5000 rpm for 10 min, and samples of the n-octanol (1 mL) and buffer (1 mL) layers were collected and counted on a Perkin Elmer (Waltham, MA, USA) Wizard2 2480 automatic gamma counter. The LogD7.4 values of [^68Ga]Ga-LW02075, [^68Ga]Ga-LW02050, and [^68Ga]Ga-SB3 were calculated following the equation: LogD7.4 = log10[(counts in the n-octanol phase)/(counts in the buffer phase)].

SMILES: CC(C)C[C@H](NC(=O)[C@H](Cc1c[nH]cn1)NC(=O)CNC(=O)[C@@H](NC(=O)[C@H](C)NC(=O)[C@H](Cc1c[nH]c2ccccc12)NC(=O)[C@H](CCC(N)=O)NC(=O)[C@@H](Cc1ccccc1)NC(=O)CN1CCC(NC(=O)CN2CCN(CC(=O)O)CCN(CC(=O)O)CCN(CC(=O)O)CC2)CC1)C(C)C)C(=O)NO [[^68Ga]Ga-LW02050, [^68Ga]Ga-DOTA-Pip-D-Phe-Gln-Trp-Ala-Val-Gly-His-Leu-NHOH, metal not drawn]
- Uptake in PC-3 tumor xenograft in PET image with blocking (PC-3 tumor xenografts; co-injection with 100 μg nonradioactive standard): close to the background level
- Excretion pathway in PET images (PC-3 tumor xenografts; mice): excreted primarily through the renal pathway
- Pancreas in PET images (PC-3 tumor xenografts; mice): nearly invisible
- Visualization of PC-3 tumor xenografts in PET images (PC-3 tumor xenografts; ~3–6 MBq i.v., mice): clearly visualized
- tissue uptake at 1 h ([1]; PC-3 tumor, 1 h blocked: co-injected with 100 µg nonradioactive Ga-complexed standard, read-out: PC-3 tumor uptake, blocked): 0.42 ± 0.08 %ID/g
- tissue uptake at 1 h ([1]; PC-3 tumor, 1 h post injection, read-out: PC-3 tumor uptake): 5.38 ± 1 %ID/g
- tissue uptake at 1 h ([1]; adrenal glands, 1 h blocked: co-injected with 100 µg nonradioactive Ga-complexed standard, read-out: Adrenal glands uptake, blocked): 0.05 ± 0.05 %ID/g
- tissue uptake at 1 h ([1]; adrenal glands, 1 h post injection, read-out: Adrenal glands uptake): 0.43 ± 0.15 %ID/g
- tissue uptake at 1 h ([1]; blood, 1 h blocked: co-injected with 100 µg nonradioactive Ga-complexed standard, read-out: Blood uptake, blocked): 0.34 ± 0.06 %ID/g
- tissue uptake at 1 h ([1]; blood, 1 h post injection, read-out: Blood uptake): 0.57 ± 0.11 %ID/g
- tissue uptake at 1 h ([1]; bone, 1 h blocked: co-injected with 100 µg nonradioactive Ga-complexed standard, read-out: Bone uptake, blocked): 0.03 ± 0.03 %ID/g
- tissue uptake at 1 h ([1]; bone, 1 h post injection, read-out: Bone uptake): 0.14 ± 0.06 %ID/g
- tissue uptake at 1 h ([1]; brain, 1 h blocked: co-injected with 100 µg nonradioactive Ga-complexed standard, read-out: Brain uptake, blocked): 0.01 %ID/g
- tissue uptake at 1 h ([1]; brain, 1 h post injection, read-out: Brain uptake): 0.03 ± 0.01 %ID/g
- tissue uptake at 1 h ([1]; fat, 1 h blocked: co-injected with 100 µg nonradioactive Ga-complexed standard, read-out: Fat uptake, blocked): 0.04 ± 0.01 %ID/g
- tissue uptake at 1 h ([1]; fat, 1 h post injection, read-out: Fat uptake): 0.05 ± 0.01 %ID/g
- tissue uptake at 1 h ([1]; heart, 1 h blocked: co-injected with 100 µg nonradioactive Ga-complexed standard, read-out: Heart uptake, blocked): 0.1 ± 0.02 %ID/g
- tissue uptake at 1 h ([1]; heart, 1 h post injection, read-out: Heart uptake): 0.19 ± 0.03 %ID/g
- tissue uptake at 1 h ([1]; kidneys, 1 h blocked: co-injected with 100 µg nonradioactive Ga-complexed standard, read-out: Kidneys uptake, blocked): 1.95 ± 0.44 %ID/g
- tissue uptake at 1 h ([1]; kidneys, 1 h post injection, read-out: Kidneys uptake): 2.88 ± 0.68 %ID/g
- tissue uptake at 1 h ([1]; large intestine, 1 h blocked: co-injected with 100 µg nonradioactive Ga-complexed standard, read-out: Large intestine uptake, blocked): 0.19 ± 0.17 %ID/g
- tissue uptake at 1 h ([1]; large intestine, 1 h post injection, read-out: Large intestine uptake): 0.34 ± 0.15 %ID/g
- tissue uptake at 1 h ([1]; liver, 1 h blocked: co-injected with 100 µg nonradioactive Ga-complexed standard, read-out: Liver uptake, blocked): 0.29 ± 0.2 %ID/g
- tissue uptake at 1 h ([1]; liver, 1 h post injection, read-out: Liver uptake): 0.44 ± 0.05 %ID/g
- tissue uptake at 1 h ([1]; lungs, 1 h blocked: co-injected with 100 µg nonradioactive Ga-complexed standard, read-out: Lungs uptake, blocked): 0.33 ± 0.09 %ID/g
- tissue uptake at 1 h ([1]; lungs, 1 h post injection, read-out: Lungs uptake): 0.55 ± 0.06 %ID/g
- tissue uptake at 1 h ([1]; muscle, 1 h blocked: co-injected with 100 µg nonradioactive Ga-complexed standard, read-out: Muscle uptake, blocked): 0.06 ± 0.02 %ID/g
- tissue uptake at 1 h ([1]; muscle, 1 h post injection, read-out: Muscle uptake): 0.13 ± 0.02 %ID/g
- tissue uptake at 1 h ([1]; pancreas, 1 h blocked: co-injected with 100 µg nonradioactive Ga-complexed standard, read-out: Pancreas uptake, blocked): 0.1 ± 0.03 %ID/g
- tissue uptake at 1 h ([1]; pancreas, 1 h post injection, read-out: Pancreas uptake): 0.53 ± 0.11 %ID/g
- tissue uptake at 1 h ([1]; small intestine, 1 h blocked: co-injected with 100 µg nonradioactive Ga-complexed standard, read-out: Small intestine uptake, blocked): 0.26 ± 0.09 %ID/g
- tissue uptake at 1 h ([1]; small intestine, 1 h post injection, read-out: Small intestine uptake): 0.43 ± 0.04 %ID/g
- tissue uptake at 1 h ([1]; spleen, 1 h blocked: co-injected with 100 µg nonradioactive Ga-complexed standard, read-out: Spleen uptake, blocked): 0.12 ± 0.02 %ID/g
- tissue uptake at 1 h ([1]; spleen, 1 h post injection, read-out: Spleen uptake): 0.25 ± 0.04 %ID/g
- tissue uptake at 1 h ([1]; stomach, 1 h blocked: co-injected with 100 µg nonradioactive Ga-complexed standard, read-out: Stomach uptake, blocked): 0.04 ± 0.02 %ID/g
- tissue uptake at 1 h ([1]; stomach, 1 h post injection, read-out: Stomach uptake): 0.34 ± 0.14 %ID/g
- tissue uptake at 1 h ([1]; testes, 1 h blocked: co-injected with 100 µg nonradioactive Ga-complexed standard, read-out: Testes uptake, blocked): 0.13 ± 0.05 %ID/g
- tissue uptake at 1 h ([1]; testes, 1 h post injection, read-out: Testes uptake): 0.17 ± 0.05 %ID/g
- tissue to tissue ratio at 1 h ([1]; tumor and bone, 1 h blocked: co-injected with 100 µg nonradioactive Ga-complexed standard, read-out: Tumor/bone uptake ratio, blocked): 27.1 ± 18.1
- tissue to tissue ratio at 1 h ([1]; tumor and bone, 1 h post injection, read-out: Tumor/bone uptake ratio): 43.6 ± 22.6
- tissue to tissue ratio at 1 h ([1]; tumor and kidney, 1 h blocked: co-injected with 100 µg nonradioactive Ga-complexed standard, read-out: Tumor/kidney uptake ratio, blocked): 0.22 ± 0.05
- tissue to tissue ratio at 1 h ([1]; tumor and kidney, 1 h post injection, read-out: Tumor/kidney uptake ratio): 1.92 ± 0.41
- tissue to tissue ratio at 1 h ([1]; tumor and muscle, 1 h blocked: co-injected with 100 µg nonradioactive Ga-complexed standard, read-out: Tumor/muscle uptake ratio, blocked): 8.28 ± 2.7
- tissue to tissue ratio at 1 h ([1]; tumor and muscle, 1 h post injection, read-out: Tumor/muscle uptake ratio): 44.4 ± 14.1
- tissue to tissue ratio at 1 h ([1]; tumor and pancreas, 1 h blocked: co-injected with 100 µg nonradioactive Ga-complexed standard, read-out: Tumor/pancreas uptake ratio, blocked): 4.3 ± 0.83
- tissue to tissue ratio at 1 h ([1]; tumor and pancreas, 1 h post injection, read-out: Tumor/pancreas uptake ratio): 10.7 ± 4.17
- tissue to tissue ratio at 1 h ([1]; tumor and whole blood, 1 h blocked: co-injected with 100 µg nonradioactive Ga-complexed standard, read-out: Tumor/blood uptake ratio, blocked): 1.23 ± 0.14
- tissue to tissue ratio at 1 h ([1]; tumor and whole blood, 1 h post injection, read-out: Tumor/blood uptake ratio): 9.68 ± 2.84
- Reduction of average pancreas uptake by co-injection of nonradioactive standard (PC-3 tumor-bearing mice): 81%
- Reduction of average uptake in PC-3 tumor xenografts by co-injection of nonradioactive standard (PC-3 tumor-bearing mice): 92%
- logD (physchem): -2.3 ± 0.14
